Data reported in publication doi:10.1101/2025.04.14.648762, “P-Rex1 Limits the Agonist-Induced Internalisation of GPCRs Independently of its Rac-GEF Activity” (bioRxiv, 2025).

How the values were obtained:
Test in all cases: pull-down; 5 pmol P-Rex1 or P-Rex2 protein (2.5 pmol for P-Rex1 mutants) with 5 pmol GST or GST-Grk2 in 20 µl detergent-free buffer (50 mM Hepes pH 7.2, 150 mM NaCl), 1 h on ice; isolated on magnetic glutathione agarose; beads washed in buffer with 1% NP-40; western blot
Settings in all cases: both partners purified
[1] = biological target: T1, GEF-dead His-P-Rex2 (P-Rex2^E30A,N212A) (human, UniProt Q70Z35 1-1606, E30A | N212A)
T1 construct: P-Rex2, human, with alanine mutations at Glu30 and Asn212 in the catalytic DH domain; also called GEF-dead P-Rex2; source: baculovirus-infected Sf9 cells, purified (Ni-NTA agarose, desalting); not shown: His6, N-terminal, kept

GEF-dead EE-P-Rex1 = biological target: T2, GEF-dead EE-P-Rex1 (human, UniProt Q8TCU6 1-1659, E56A | N238A)
T2 construct: P-Rex1, human, with point mutations E56A and N238A in the DH domain; also called GEF-dead P-Rex1; P-Rex1 E56A N238A; source: baculovirus-infected Sf9 cells, purified using the EE tag

His-P-Rex2 (wild type) = biological target: T3, His-P-Rex2 (wild type) (human, UniProt Q70Z35 1-1606)
T3 construct: P-Rex2, human, wild type, subcloned into pENTR3C and recombined with pDEST10; also called wild type His-P-Rex2; source: baculovirus-infected Sf9 cells, purified (Ni-NTA agarose, desalting); not shown: His6, N-terminal, kept

[2] = biological target: T4, EE-P-Rex1 (purified recombinant wild type) (human, UniProt Q8TCU6 1-1659)
T4 construct: P-Rex1, human, wild type recombinant protein; also called wild type EE-P-Rex1; source: baculovirus-infected Sf9 cells, purified using the EE tag

Measured: binding result

T2 sequence (Q8TCU6 whole entry E56A/N238A, the tested form may be a part): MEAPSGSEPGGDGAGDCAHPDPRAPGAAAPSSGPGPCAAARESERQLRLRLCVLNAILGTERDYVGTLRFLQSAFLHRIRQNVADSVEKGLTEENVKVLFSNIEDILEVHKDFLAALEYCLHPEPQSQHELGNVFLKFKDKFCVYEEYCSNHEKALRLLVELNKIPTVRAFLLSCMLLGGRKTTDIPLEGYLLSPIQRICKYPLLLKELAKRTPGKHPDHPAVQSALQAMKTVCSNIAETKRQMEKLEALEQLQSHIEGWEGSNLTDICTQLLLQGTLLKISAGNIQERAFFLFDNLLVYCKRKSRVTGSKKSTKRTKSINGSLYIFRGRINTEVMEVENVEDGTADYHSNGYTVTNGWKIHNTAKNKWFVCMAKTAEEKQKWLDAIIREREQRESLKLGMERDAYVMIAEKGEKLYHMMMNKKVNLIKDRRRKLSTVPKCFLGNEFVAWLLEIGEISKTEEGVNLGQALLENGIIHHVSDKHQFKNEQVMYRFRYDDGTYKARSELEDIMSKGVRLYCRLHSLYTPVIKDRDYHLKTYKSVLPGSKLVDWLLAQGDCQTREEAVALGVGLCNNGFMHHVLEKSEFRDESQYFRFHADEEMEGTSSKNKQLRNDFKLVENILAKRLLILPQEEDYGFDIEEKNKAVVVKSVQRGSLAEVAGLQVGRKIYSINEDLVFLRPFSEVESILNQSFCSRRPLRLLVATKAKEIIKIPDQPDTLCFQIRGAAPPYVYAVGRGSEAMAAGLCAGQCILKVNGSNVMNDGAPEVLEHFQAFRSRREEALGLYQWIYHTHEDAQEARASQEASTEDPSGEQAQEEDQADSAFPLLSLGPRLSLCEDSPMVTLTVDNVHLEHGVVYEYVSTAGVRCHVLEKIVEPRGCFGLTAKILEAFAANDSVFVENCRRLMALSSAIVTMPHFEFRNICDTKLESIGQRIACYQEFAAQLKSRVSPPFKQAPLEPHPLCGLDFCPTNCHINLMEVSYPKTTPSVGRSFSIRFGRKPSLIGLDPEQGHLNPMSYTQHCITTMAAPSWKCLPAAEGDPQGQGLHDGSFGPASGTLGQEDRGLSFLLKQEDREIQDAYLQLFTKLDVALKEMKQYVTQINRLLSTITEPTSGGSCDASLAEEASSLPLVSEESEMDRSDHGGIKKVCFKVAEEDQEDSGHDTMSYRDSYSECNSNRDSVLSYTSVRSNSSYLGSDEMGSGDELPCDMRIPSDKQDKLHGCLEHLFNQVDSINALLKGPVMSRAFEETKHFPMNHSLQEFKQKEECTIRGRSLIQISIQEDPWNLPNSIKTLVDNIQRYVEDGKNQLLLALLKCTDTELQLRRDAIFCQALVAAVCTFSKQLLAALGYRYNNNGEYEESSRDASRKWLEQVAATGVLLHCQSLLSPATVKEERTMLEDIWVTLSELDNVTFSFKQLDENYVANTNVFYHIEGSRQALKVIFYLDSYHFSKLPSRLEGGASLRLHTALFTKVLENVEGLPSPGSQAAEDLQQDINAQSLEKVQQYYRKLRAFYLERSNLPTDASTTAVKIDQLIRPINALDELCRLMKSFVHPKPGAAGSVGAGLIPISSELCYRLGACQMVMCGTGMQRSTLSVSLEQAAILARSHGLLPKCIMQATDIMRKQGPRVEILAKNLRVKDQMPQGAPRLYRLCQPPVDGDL
T1 sequence (Q70Z35 whole entry E30A/N212A, the tested form may be a part): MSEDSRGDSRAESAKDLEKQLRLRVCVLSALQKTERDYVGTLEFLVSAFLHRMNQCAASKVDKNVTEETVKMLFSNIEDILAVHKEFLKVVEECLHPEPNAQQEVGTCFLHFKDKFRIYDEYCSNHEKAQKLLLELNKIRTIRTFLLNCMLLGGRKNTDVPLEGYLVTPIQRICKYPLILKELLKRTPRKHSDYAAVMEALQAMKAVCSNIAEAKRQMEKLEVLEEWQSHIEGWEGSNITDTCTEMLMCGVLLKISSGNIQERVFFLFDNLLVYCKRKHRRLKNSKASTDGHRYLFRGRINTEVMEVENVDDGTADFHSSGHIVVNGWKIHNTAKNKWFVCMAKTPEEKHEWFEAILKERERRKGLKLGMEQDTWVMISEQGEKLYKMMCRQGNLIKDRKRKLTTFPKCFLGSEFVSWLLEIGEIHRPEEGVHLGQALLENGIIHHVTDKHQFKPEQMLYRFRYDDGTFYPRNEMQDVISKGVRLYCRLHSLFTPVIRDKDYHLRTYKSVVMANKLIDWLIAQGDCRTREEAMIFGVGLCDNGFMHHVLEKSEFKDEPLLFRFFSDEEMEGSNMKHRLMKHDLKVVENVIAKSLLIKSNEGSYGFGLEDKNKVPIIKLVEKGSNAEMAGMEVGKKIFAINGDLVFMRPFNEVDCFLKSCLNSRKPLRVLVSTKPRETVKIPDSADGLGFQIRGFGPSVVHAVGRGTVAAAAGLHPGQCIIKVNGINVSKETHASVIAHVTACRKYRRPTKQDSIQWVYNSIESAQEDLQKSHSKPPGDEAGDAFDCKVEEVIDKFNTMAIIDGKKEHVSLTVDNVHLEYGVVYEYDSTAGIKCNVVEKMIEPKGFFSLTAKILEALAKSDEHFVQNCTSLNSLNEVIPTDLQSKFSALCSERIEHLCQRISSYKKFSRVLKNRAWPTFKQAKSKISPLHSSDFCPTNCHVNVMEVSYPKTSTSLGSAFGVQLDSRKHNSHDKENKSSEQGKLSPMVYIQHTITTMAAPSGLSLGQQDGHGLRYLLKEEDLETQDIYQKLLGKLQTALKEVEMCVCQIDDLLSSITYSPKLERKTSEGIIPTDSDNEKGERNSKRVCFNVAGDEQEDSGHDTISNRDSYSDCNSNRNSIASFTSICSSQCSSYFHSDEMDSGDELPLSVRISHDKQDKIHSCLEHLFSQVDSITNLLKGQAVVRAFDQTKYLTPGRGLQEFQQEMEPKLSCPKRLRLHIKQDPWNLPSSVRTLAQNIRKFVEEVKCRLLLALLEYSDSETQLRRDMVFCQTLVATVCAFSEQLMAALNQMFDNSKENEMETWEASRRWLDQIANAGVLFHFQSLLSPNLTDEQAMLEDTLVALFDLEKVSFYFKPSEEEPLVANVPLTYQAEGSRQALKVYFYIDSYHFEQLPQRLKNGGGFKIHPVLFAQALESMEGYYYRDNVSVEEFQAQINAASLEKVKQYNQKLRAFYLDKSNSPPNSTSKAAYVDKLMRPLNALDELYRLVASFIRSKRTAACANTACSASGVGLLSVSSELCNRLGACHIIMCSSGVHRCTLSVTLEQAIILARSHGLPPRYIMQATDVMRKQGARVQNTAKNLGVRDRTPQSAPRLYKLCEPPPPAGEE
T3 sequence (Q70Z35 whole entry): as the sequence (Q70Z35 whole entry E30A/N212A, the tested form may be a part) above, with A30E, A212N counted along it
T4 sequence (Q8TCU6 whole entry): as the sequence (Q8TCU6 whole entry E56A/N238A, the tested form may be a part) above, with A56E, A238N counted along it

B1: GST-Grk2 (enzyme, human, UniProt P25098 1-689, looked up)
chain: MADLEAVLADVSYLMAMEKSKATPAARASKKILLPEPSIRSVMQKYLEDRGEVTFEKIFSQKLGYLLFRDFCLNHLEEARPLVEFYEEIKKYEKLETEEERVARSREIFDSYIMKELLACSHPFSKSATEHVQGHLGKKQVPPDLFQPYIEEICQNLRGDVFQKFIESDKFTRFCQWKNVELNIHLTMNDFSVHRIIGRGGFGEVYGCRKADTGKMYAMKCLDKKRIKMKQGETLALNERIMLSLVSTGDCPFIVCMSYAFHTPDKLSFILDLMNGGDLHYHLSQHGVFSEADMRFYAAEIILGLEHMHNRFVVYRDLKPANILLDEHGHVRISDLGLACDFSKKKPHASVGTHGYMAPEVLQKGVAYDSSADWFSLGCMLFKLLRGHSPFRQHKTKDKHEIDRMTLTMAVELPDSFSPELRSLLEGLLQRDVNRRLGCLGRGAQEVKESPFFRSLDWQMVFLQKYPPPLIPPRGEVNAADAFDIGSFDEEDTKGIKLLDSDQELYRNFPLTISERWQQEVAETVFDTINAETDRLEARKKAKNKQLGHEEDYALGKDCIMHGYMSKMGNPFLTQWQRRYFYLFPNRLEWRGEGEAPQSLLTMEEIQSVEETQIKERKCLLLKIRGGKQFILQCDSDPELVQWKKELRDAYREAQQLVQRVPKMKNKPRSPVVELSKVPLVQRGSANGL
notes: G protein-coupled receptor kinase 2 (Grk2), human, recombinant; also called recombinant human GST-Grk2; source: bought: Abcam (ab125620), Sf9 cell-derived recombinant
binds: [1] | GEF-dead EE-P-Rex1 | His-P-Rex2 (wild type) | [2]
